Molecular target: human insulin-like growth factor-I (IGF-I) (human)

Substance: human insulin-like growth factor binding protein-3 (IGFBP-3), recombinant, from pDJ12833 (from UniProt P17936)
- yield of correctly folded (native) protein by RP-HPLC after cofolding, against each protein refolded alone: 99.6%

Reference: patent US5789547
